Source: paper PMC7463542, “Automated GMP-Compliant Production of [^68Ga]Ga-DO3A-Tuna-2 for PET Microdosing Studies of the Glucagon Receptor in Humans” (Pharmaceuticals, 2020)

Key:
[1] = Safety, pharmacology, and toxicology studies in animals; assay type: in vivo
[2] = Storage stability of the aqueous precursor solution at −20 °C (formation of oxidized product); assay type: physicochemical; conditions: at least six months
[3] = assay type: physicochemical
Description: The aseptic production was conducted in a GMP grade A workstation (unidirectional laminar airflow workbench (LAFW)) situated in a cleanroom with GMP grade B air quality. The ^68Ge/^68Ga generator (GalliaPharm®, Eckert & Ziegler, Berlin, Germany) and Modular PharmLab labeling synthesis platform (Eckert & Ziegler Eurotope, Berlin, Germany) were placed in the LAFW. A high-performance liquid chromatography system (LaChrom, Hitachi, VWR) consisting of an L-2130 pump, UV detector (L-2400), and radiation flow detector (Bioscan) coupled in series was used for product quality control. Separation of the analytes was accomplished using an analytical column with a stationary reversed phase (C-4; Vydac-C4; 50 × 4.6 mm; particle size: 3 µm). The conditions were as follows: A = 10 mM trifluoroacetic acid in water; B = 100% acetonitrile (MeCN) with 10 mM TFA with UV-detection at 220 nm; linear gradient elution: 0 min at 24% B, 0–8 min from 24 to 45% B, 8–10 min at 45% B, 10–15 min at 24% B; flow rate was 2.0 mL/min. Data acquisition and handling were performed using the EZChrom Elite Software Package (version 1.3).
Quality control on the chemical purity, radiochemical purity, and determination of the peptide concentration was performed using UV-Radio-HPLC. The development and validation of the method were conducted using two different reversed-phase columns Vydac-C4 and Aeris-C4 with mobile phases of 0.1% TFA in water as the A mobile phase and 0.1% TFA in acetonitrile as the B mobile phase. The gradient of B increased from 25% to 40% within 30 min for Aeris-4 and B increased from 24 to 45% within 8 min, followed by 2 min of isocratic elution. The recovery of radioactivity from the analytical column was investigated, in order to confirm that no radioactive product or impurities were left on the column, by collecting HPLC effluent with and without an analytical column and measuring the radioactivity. The tests were performed for both the product ([^68Ga]Ga-DO3A-VS-Cys^40-Tuna-2) and free ^68Ga(III). Specificity, linearity, and precision as repeatability were validated for both UV- and radio-detectors.
Three successful sequential productions were performed for the manufacturing validation. A fraction of pre-determined volume was kept for the subsequent determination of ^68Ge content and solvent residual content. The stability of the product at room temperature was monitored by UV-radio-HPLC for 2 h.

[4] = tested on: glucagon receptor (GCGR); conditions: in vitro and in vivo in rats and non-human primates; 16 (previous studies); cited from earlier work
Text: The manufacturing process of [^68Ga]Ga-DO3A-VS-Cys^40-Tuna-2 was automated for clinical use to meet the radiation safety and good manufacturing practice (GMP) requirements. Methods: The automated synthesis platform (Modular-Lab PharmTrace, Eckert & Ziegler, E ...

[5] = Sensitivity of the labelled product to (radiolytic) oxidation; assay type: physicochemical; conditions: compared with [^68Ga]Ga-DO3A-VS-Cys^40-Exendin-4; labeling conditions
[6] = biological target: T1, glucagon receptor (GCGR) (Homo sapiens, UniProt P47871); assay type: in vivo, humans
T1 construct: strong liver uptake expected due to the high glucagon receptor expression on hepatocytes; from tissue; host or cells: liver (hepatocytes) of living human subjects with type 2 diabetes
T1 sequence (P47871 26-477): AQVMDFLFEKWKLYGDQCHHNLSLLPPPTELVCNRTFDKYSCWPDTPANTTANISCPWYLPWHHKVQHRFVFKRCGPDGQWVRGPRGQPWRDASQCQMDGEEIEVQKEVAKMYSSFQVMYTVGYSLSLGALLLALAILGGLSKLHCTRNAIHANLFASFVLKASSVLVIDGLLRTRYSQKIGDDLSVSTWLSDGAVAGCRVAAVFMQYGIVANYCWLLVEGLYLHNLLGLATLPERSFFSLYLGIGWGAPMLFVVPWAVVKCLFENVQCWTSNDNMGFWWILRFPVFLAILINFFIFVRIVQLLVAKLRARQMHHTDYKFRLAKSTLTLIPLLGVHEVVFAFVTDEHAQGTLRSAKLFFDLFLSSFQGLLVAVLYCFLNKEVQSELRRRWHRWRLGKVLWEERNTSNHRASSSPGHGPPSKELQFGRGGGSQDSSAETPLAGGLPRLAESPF
Text: [^68Ga]Ga-DO3A-VS-Cys^40-Tuna-2 PET/CT was used for assessing the hepatic GCGR receptor density and availability within a phase Ib, open-label study investigating the receptor occupancy of a dual GLP1/GCG agonist (ClinicalTrials.gov: NCT03350191). The results of the full receptor occupancy study, as well as the human biodistribution and dosimetry of [^68Ga]Ga-DO3A-VS-Cys^40-Tuna-2, will be reported separately. The study was approved by the Swedish Medical Products Agency and the regional ethical review board (Dnr 2017/395; EudraCT nr. 2017-001789-23).
Briefly, individuals with T2D were enrolled in the study and signed informed consent. They (n = 13) were placed in the supine position with the liver in the 20 cm axial PET field of view of a Discovery MI PET/CT scanner (GE Healthcare). [^68Ga]Ga-DO3A-VS-Cys^40-Tuna-2 (target dose 0.5 MBq/kg, <0.2 µg/kg peptide) was administered intravenously as a bolus followed by a 60 min dynamic PET acquisition in list-mode. The PET list mode data were reconstructed into 30 frames (12 × 10, 6 × 30, 5 × 120, 5 × 300, 2 × 600 s) using an iterative VPFX-S algorithm (3 iterations, 3 subsets, matrix 256 × 256, Z-axis post-filter 3 mm) with all relevant corrections performed.

Row | Substance | Toxicity related to the substance [1] | Formation of oxidized product upon storage [2] | Stability: radiochemical purity 2 h postproduction [3] | RCP at ambient temperature for at least 2 h ([3]; ambient temperature, Figure 5, as stated in discussion) | Time for which the product was stable at ambient temperature ([3]; formulated product, ambient temperature, UV-radio-HPLC) | Radiochemical purity (RCP) after production, 1 h and 2 h post-production ([3]; formulated product, room temperature, radioactivity traces of Figure 5) | Binding to the glucagon receptor (GCGR) [4] | Sensitivity to oxidation [5] | Binding in the liver ([6]; T2D patients, IV bolus, baseline examinations, 60 min dynamic PET) | Plasma kinetics ([6]; in vivo, iv)
1 | TzaD-SerQGTFTSDYSKQLDE*QRAK*EFIEWLLATGPESGAPPPS (sidechain bridge or staple) [DO3A-VS-Cys^40-Tuna-2, unlabelled precursor (GMP-grade API starting material): Tuna-2 peptide coupled to DOTA bifunctional chelator via Cys40 and vinyl sulfone linker] | no DO3A-VS-Cys^40-Tuna-2 related toxicity | no formation of the oxidized product was detected | – | – | – | – | – | – | – | –
2 | TzaD-SerQGTFTSDYSKQLDE*QRAK*EFIEWLLATGPESGAPPPS (sidechain bridge or staple) [[^68Ga]Ga-DO3A-VS-Cys^40-Tuna-2, ^68Ga-labeled peptide-based PET imaging agent targeting GCGR; 39-residue Tuna-2 coupled to DOTA chelator via Cys40 and vinyl sulfone linker] | – | – | 97.9 ± 0.9% | over 95% | at least 2 h | over 98% | high-affinity specific binding | less sensitive to the oxidation | strong binding in the liver | rapid plasma kinetics
